The values below come from paper PMC5526994 (Nature Communications, 2017).

To fix the notation:
B1: Bdp1SANT, human Bdp1 extended SANT domain (residues 241-396), affinity tag removed for crystallization (domain or fragment, UniProt A6H8Y1 241-396, looked up)
chain: GPLLVPRVKVAEDGSIILDEESLTVEVLRTKGPCVVEENDPIFERGSTTTYSSFRKNYYSKPWSNKETDMFFLAISMVGTDFSMIGQLFPHRARIEIKNKFKREEKTNGWRIDKAFQEKRPFDFDFFAHLLQKVLAEEEKRKQKSVKNHSLKEKKS
notes: Bdp1, human, extended SANT domain, residues 241-396; residues 286-382 are built in the electron density; Cloned into pOPINF (cleavable N-terminal His-tag); tag removed with 3C protease for crystallization; source: E. coli BL21-CodonPlus (DE3)-RIL, purified (Ni-NTA, 3C cleavage, heparin, SEC); not shown: His tag, N-terminal, cleaved
B2: Bdp1SANT, human Bdp1 extended SANT domain (residues 241-396), His-tagged (domain or fragment, UniProt A6H8Y1 241-396, looked up)
chain: B1 chain
notes: Bdp1, human, extended SANT domain, residues 241-396; The tag is kept in the pull-down (held on His SpinTrap); it tells of cleavage only for crystallization; source: E. coli BL21-CodonPlus (DE3)-RIL, purified (Ni-NTA, heparin, SEC); not shown: His tag, N-terminal, kept
B3: U6 promoter crystallization DNA (dsDNA)
DNA 1: TTGAAGGGCTTAAAATAGGTGTGAC
DNA 2: GGTCACACCTATTTTAAGCCCTTCAAC
B4: U6_2 PSE probe (dsDNA)
DNA 1: CCATAAGTTATCCTAACCAAAAGATGATTTGA
DNA 2: TCAAATCATCTTTTGGTTAGGATAACTTATGG
B5: U6 snRNA promoter smFRET DNA (dsDNA)
DNA 1: CGGACCAAGATGATTTGATTGAAGGGCTTAAAATAGGTGTGAGAGTAACCCTTGA
DNA 2: TCAAGGGTTACTCTCACACCTATTTTAAGCCCTTCAATCAAATCATCTTGGTCCG
B6: U6_2 TATA EMSA probe (dsDNA)
DNA 1: ATTTGATTGAAGGGCTTAAAATAGGTGTGACAGTAACC
DNA 2: GGTTACTGTCACACCTATTTTAAGCCCTTCAATCAAAT
B7: TBP (159-339) (domain or fragment, human, UniProt P20226 159-339, looked up)
chain: SGIVPQLQNIVSTVNLGCKLDLKTIALRARNAEYNPKRFAAVIMRIREPRTTALIFSSGKMVCTGAKSEEQSRLAARKYARVVQKLGFPAKFLDFKIQNMVGSCDVKFPIRLEGLVLTHQQFSSYEPELFPGLIYRMIKPRIVLLIFVSGKVVLTGAKVRAEIYEAFENIYPILKGFRKTT
notes: source: E. coli Rosetta (DE3)pLysS, purified (HisTrap, heparin, 3C cleavage, SEC)

The target in series [1] is T1, Brf2–TBP complex on U6 promoter DNA (Brf2–TBP–DNA complex) (human, UniProt Q9HAW0 62-419; P20226 159-339).
T1 construct: Brf2 (TFIIB-related factor II), human, residues 62-419; The complex stands on double-stranded U6 promoter DNA in every experiment (Cy5-labelled U6_2 38-mer in EMSA; 25 bp fragment with overhangs in the crystal); Bdp1 also contacts the DNA; also called TBP–Brf2; source: E. coli Rosetta (DE3)pLysS, each protein purified, assembled with double-stranded U6 promoter DNA; not shown: His tag, …
In words: crystal structure; Brf2 (62-419), TBP (159-339) and Bdp1SANT with 25 bp of the human U6 promoter; complex at 60 uM, equimolar TBP and Brf2, 1.1 molar excess of Bdp1SANT, 1.2 excess of dsDNA; hanging drop, PEG 8000, KCl, MES pH 6.5, MgCl2; 2.7 Å. The settings on record: both partners purified.

The target in the series “TBP (159-339)” is B7. The description is as above. The settings on record: both partners purified.
The next series concerns the target T2, Brf2 (62-419) (human, UniProt Q9HAW0 62-419).
T2 construct: Brf2 (TFIIB-related factor II), human, residues 62-419; also called TFIIB-related factor II; source: E. coli Rosetta (DE3)pLysS, co-expressed with TBP, purified in isolation (HisTrap, heparin, 3C cleavage, SEC); not shown: His tag, N-terminal, cleaved
The description is as above. The note with it: both partners purified.

Series [2] has as its target T1, Brf2–TBP complex on U6 promoter DNA …. In words: native gel or EMSA; 1.5 pmol Cy5-labelled U6_2 dsDNA, 5 pmol TBP (159-339), 7 pmol Brf2 (62-419), 10 pmol Bdp1 construct in 20 ul; 500 mM ammonium acetate, 50 mM HEPES pH 7.9, 10% glycerol, 1 mM TCEP; 21 °C, 20 min; 4.5% polyacrylamide gel. The settings on record: both partners purified. On the technique in general: In EMSA bound probe runs differently from free probe, usually more slowly.

For series [3], the target named is T3, TBP (core);Brf2 (62-419);Bdp1SANT (Homo sapiens;Homo sapiens;Homo sapiens, UniProt P20226;Q9HAW0;A6H8Y1 159-339;62-419;241-396, ||). In words: X-ray crystallography; 2.7 A; EMSA: 500 mM ammonium acetate, 50 mM HEPES pH 7.9, 10% glycerol, 1 mM TCEP, 21 °C 20 min, diluted twofold (100 mM ammonium acetate, 40% glycerol) before loading; SNAPc EMSA: 500 mM NaCl, 50 mM HEPES pH 7.9, 20% glycerol, 1 mM TCEP, 21 °C; smFRET lifetimes: T78 buffer, 1 mM DTT, room temperature. The note with it: protein: recombinant;recombinant;recombinant; tags: His-tag cleaved (3C);N-terminal His-tag cleaved (3C);N-terminal His, cleavable; cleaved for crystallization; copies: 1;1;1; 25 bp; template strand S1 has 1 nt 5' and 1 nt 3' overhang.

The next series addresses SNAPcΔ;Bdp1SANT (Homo sapiens?;Homo sapiens, UniProt Q5SXM2;Q92966;Q16533;O75971;A6H8Y1 1-516;1-411;1-368;1-98;241-396, |). As to the kind of experiment: EMSA; Bdp1SANT not recruited to SNAPc-DNA; not loss of SNAPc-DNA binding; EMSA: 500 mM ammonium acetate, 50 mM HEPES pH 7.9, 10% glycerol, 1 mM TCEP, 21 °C 20 min, diluted twofold (100 mM ammonium acetate, 40% glycerol) before loading; SNAPc EMSA: 500 mM NaCl, 50 mM HEPES pH 7.9, 20% glycerol, 1 mM TCEP, 21 °C; smFRET lifetimes: T78 buffer, 1 mM DTT, room temperature. The settings on record: protein: recombinant;recombinant; tags: N-terminal Strep on SNAPc190Δ; His cleaved from SNAPc50;N-terminal His, cleavable; cleaved for crystallization; copies: 1;1;1;1;1; blunt.

The target in another series is SNAPcΔ;Bdp1-WT (Homo sapiens?;Homo sapiens, UniProt Q5SXM2;Q92966;Q16533;O75971;A6H8Y1 1-516;1-411;1-368;1-98;1-484, |). In words: EMSA; Bdp1 binding to SNAPc-DNA; EMSA: 500 mM ammonium acetate, 50 mM HEPES pH 7.9, 10% glycerol, 1 mM TCEP, 21 °C 20 min, diluted twofold (100 mM ammonium acetate, 40% glycerol) before loading; SNAPc EMSA: 500 mM NaCl, 50 mM HEPES pH 7.9, 20% glycerol, 1 mM TCEP, 21 °C; smFRET lifetimes: T78 buffer, 1 mM DTT, room temperature. The settings on record: protein: recombinant;recombinant; tags: N-terminal Strep on SNAPc190Δ; His cleaved from SNAPc50;C-terminal His (uncleavable); copies: 1;1;1;1;1; blunt.

The target in series [4] is T4, TBP (core);Brf2 (62-419) (Homo sapiens;Homo sapiens, UniProt P20226;Q9HAW0 159-339;62-419, |). In words: smFRET; complex lifetime 381 ± 33 s (heparin trap); EMSA: 500 mM ammonium acetate, 50 mM HEPES pH 7.9, 10% glycerol, 1 mM TCEP, 21 °C 20 min, diluted twofold (100 mM ammonium acetate, 40% glycerol) before loading; SNAPc EMSA: 500 mM NaCl, 50 mM HEPES pH 7.9, 20% glycerol, 1 mM TCEP, 21 °C; smFRET lifetimes: T78 buffer, 1 mM DTT, room temperature. The settings on record: protein: recombinant;recombinant; tags: His-tag cleaved (3C);N-terminal His-tag cleaved (3C); copies: 1;1; label: internal ATTO 532 donor and ATTO 647N acceptor; immobilized in TIRF assay; blunt.

Another series has as its target TBP (core) (Homo sapiens, UniProt P20226 159-339). As to the kind of experiment: smFRET; 10 nM TBP; complex lifetime 0.29 s; EMSA: 500 mM ammonium acetate, 50 mM HEPES pH 7.9, 10% glycerol, 1 mM TCEP, 21 °C 20 min, diluted twofold (100 mM ammonium acetate, 40% glycerol) before loading; SNAPc EMSA: 500 mM NaCl, 50 mM HEPES pH 7.9, 20% glycerol, 1 mM TCEP, 21 °C; smFRET lifetimes: T78 buffer, 1 mM DTT, room temperature. The settings on record: protein: recombinant; tags: His-tag cleaved (3C); label: internal ATTO 532 donor and ATTO 647N acceptor; immobilized in TIRF assay; blunt.

Series [5] has as its target T3, TBP (core);Brf2 (62-419);Bdp1SANT. As to the kind of experiment: smFRET; complex lifetime 547 ± 87 s (heparin trap); EMSA: 500 mM ammonium acetate, 50 mM HEPES pH 7.9, 10% glycerol, 1 mM TCEP, 21 °C 20 min, diluted twofold (100 mM ammonium acetate, 40% glycerol) before loading; SNAPc EMSA: 500 mM NaCl, 50 mM HEPES pH 7.9, 20% glycerol, 1 mM TCEP, 21 °C; smFRET lifetimes: T78 buffer, 1 mM DTT, room temperature. The settings on record: protein: recombinant;recombinant;recombinant; tags: His-tag cleaved (3C);N-terminal His-tag cleaved (3C);N-terminal His, cleavable; cleaved for crystallization; copies: 1;1;1; label: internal ATTO 532 donor and ATTO 647N acceptor; immobilized in TIRF assay; blunt.

The target of series [6] is T4, TBP (core);Brf2 (62-419). In words: competition; 0-200x unlabelled same-sequence DNA; less stable than with Bdp1SANT; EMSA: 500 mM ammonium acetate, 50 mM HEPES pH 7.9, 10% glycerol, 1 mM TCEP, 21 °C 20 min, diluted twofold (100 mM ammonium acetate, 40% glycerol) before loading; SNAPc EMSA: 500 mM NaCl, 50 mM HEPES pH 7.9, 20% glycerol, 1 mM TCEP, 21 °C; smFRET lifetimes: T78 buffer, 1 mM DTT, room temperature. The settings on record: protein: recombinant;recombinant; tags: His-tag cleaved (3C);N-terminal His-tag cleaved (3C); copies: 1;1; label: 5' Cy5 on strand 1; blunt.

In series [7] the target is T3, TBP (core);Brf2 (62-419);Bdp1SANT. As to the kind of experiment: EMSA; similar affinity to longer Bdp1 constructs; EMSA: 500 mM ammonium acetate, 50 mM HEPES pH 7.9, 10% glycerol, 1 mM TCEP, 21 °C 20 min, diluted twofold (100 mM ammonium acetate, 40% glycerol) before loading; SNAPc EMSA: 500 mM NaCl, 50 mM HEPES pH 7.9, 20% glycerol, 1 mM TCEP, 21 °C; smFRET lifetimes: T78 buffer, 1 mM DTT, room temperature. The settings on record: protein: recombinant;recombinant;recombinant; tags: His-tag cleaved (3C);N-terminal His-tag cleaved (3C);N-terminal His, cleavable; cleaved for crystallization; copies: 1;1;1; label: 5' Cy5 on strand 1; blunt.

T3 sequence (Q9HAW0 62-419, one chain of several): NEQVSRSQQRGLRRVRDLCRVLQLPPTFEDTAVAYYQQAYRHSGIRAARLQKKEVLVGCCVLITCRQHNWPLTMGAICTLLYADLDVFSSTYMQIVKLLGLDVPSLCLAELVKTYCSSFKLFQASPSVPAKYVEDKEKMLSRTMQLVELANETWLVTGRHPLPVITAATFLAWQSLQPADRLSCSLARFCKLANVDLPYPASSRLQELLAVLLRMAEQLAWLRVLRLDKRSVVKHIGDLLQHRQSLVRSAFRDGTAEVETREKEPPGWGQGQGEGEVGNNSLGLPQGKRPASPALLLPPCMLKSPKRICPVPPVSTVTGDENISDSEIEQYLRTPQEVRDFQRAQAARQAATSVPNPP
T1 sequence (Q9HAW0 62-419, one chain of several): as above
T2 sequence (Q9HAW0 62-419): as the sequence (Q9HAW0 62-419, one chain of several) above
T4 sequence (Q9HAW0 62-419, one chain of several): as above
Sequence of SNAPcΔ;Bdp1SANT (Q5SXM2 1-516, stated change not applied, chain 1 of 4): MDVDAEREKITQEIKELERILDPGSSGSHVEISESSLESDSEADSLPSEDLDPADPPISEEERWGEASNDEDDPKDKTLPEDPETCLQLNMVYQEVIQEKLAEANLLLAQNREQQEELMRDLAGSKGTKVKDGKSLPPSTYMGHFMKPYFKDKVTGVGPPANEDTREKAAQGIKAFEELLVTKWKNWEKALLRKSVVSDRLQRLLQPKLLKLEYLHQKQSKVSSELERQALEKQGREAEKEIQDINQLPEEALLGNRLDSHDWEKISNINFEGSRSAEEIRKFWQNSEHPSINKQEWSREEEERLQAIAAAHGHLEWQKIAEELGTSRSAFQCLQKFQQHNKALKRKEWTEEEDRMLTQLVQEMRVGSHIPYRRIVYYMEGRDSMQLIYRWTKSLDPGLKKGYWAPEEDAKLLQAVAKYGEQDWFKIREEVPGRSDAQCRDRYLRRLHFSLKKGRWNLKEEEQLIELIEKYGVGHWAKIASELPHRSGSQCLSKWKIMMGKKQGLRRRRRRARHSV
Sequence of SNAPcΔ;Bdp1SANT (Q92966 whole entry, stated change not applied, chain 2 of 4): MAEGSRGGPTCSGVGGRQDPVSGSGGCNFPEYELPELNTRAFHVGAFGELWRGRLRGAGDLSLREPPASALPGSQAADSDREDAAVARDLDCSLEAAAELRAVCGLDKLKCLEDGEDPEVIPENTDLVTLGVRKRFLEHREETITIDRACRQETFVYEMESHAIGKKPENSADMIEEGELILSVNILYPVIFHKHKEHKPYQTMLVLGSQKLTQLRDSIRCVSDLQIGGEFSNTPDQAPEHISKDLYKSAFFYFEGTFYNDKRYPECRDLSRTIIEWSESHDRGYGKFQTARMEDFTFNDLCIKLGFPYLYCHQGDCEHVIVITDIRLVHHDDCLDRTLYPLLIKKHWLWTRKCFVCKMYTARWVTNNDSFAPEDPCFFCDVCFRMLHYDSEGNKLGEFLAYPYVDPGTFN
Sequence of SNAPcΔ;Bdp1SANT (Q16533 whole entry, stated change not applied, chain 3 of 4): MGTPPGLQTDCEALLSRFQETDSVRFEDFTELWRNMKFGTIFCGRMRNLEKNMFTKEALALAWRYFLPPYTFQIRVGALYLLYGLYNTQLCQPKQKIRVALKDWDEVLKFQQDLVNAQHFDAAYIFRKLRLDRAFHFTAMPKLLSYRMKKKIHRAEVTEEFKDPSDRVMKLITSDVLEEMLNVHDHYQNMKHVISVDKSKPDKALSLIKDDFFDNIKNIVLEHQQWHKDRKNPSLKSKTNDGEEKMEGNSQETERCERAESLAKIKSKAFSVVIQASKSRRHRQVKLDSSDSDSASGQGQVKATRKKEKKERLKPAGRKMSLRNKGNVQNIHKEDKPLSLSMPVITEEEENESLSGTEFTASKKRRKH
Sequence of SNAPcΔ;Bdp1SANT (O75971 whole entry, stated change not applied, chain 4 of 4): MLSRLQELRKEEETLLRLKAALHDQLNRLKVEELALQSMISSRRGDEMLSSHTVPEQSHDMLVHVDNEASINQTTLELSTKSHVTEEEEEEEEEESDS

For the molecule B1, the binding result (in series [1]; with TBP (159-339); with Brf2 (62-419)) was “binds” in each case. Consider B2, for which, in [2], the binding result is listed as “binds”.

In the case of B3, the binding result in series [3] is on record as “binds”.

As for B4, the binding result is given as “no binding” with SNAPcΔ;Bdp1SANT and “binds” with SNAPcΔ;Bdp1-WT.

For the molecule B5, the binding result (with TBP (core);Brf2 (62-419) [4]; in the series with TBP (core); in [5]) was “binds” each time.

Regarding B6, the binding result (in the series with TBP (core);Brf2 (62-419) [6]; in [7]) was “binds” throughout. On to B7, for which, in the series with Brf2 (62-419), the binding result is “binds”.
